System: Saccharomyces cerevisiae
Assay: transcriptional activation domain activity (GFP:mCherry ratio, weighted mean of sorted bins, harmonized to initial dataset scale) (arbitrary fluorescence ratio units); higher = stronger transcriptional activation
Conditions: beta-estradiol 1 µM; induction time 4 h
Experimental: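 53-aa protein tiles (fungal proteins plus yeast TF control tiles) fused C-terminally to a DBD-estrogen-binding domain-mCherry synthetic TF, integrated in S. cerevisiae (URA3 locus) with a GFP reporter. Cells were induced with 1 uM beta-estradiol for 4 h at 30 C, FACS-sorted into 8 bins by GFP:mCherry ratio and barcodes sequenced. Activity is the read-weighted mean bin fluorescence (GFP:mCherry), averaged over barcodes (median 12); tiles under 50 reads were discarded. New active-learning values were harmonized by linear fit onto the scale of the initial (Hummel et al.) dataset. The assay saturates at low and high signal.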

| Sequence | transcriptional activation domain activity |
| --- | --- |
| TRGAPPAPPPPPPPPARPSESGAPPPPPPPPARGAPPPPPPPPPPAGGAPPPP | 36500 |
| HESEESSDKKGKKKAKIEEEKEEEKEAEEEKAEEVEEAEEAEEVGEVGEEAAV | 45400 |
| MDNKSSKSPGNIPKHRACDECRSRKLACSKEPDGCARCKRERIKCHYSPQKPM | 34700 |
| LLIFVLFYYNCMKILYGIFGFIILGVLGLFGYYISSMLLWLYNVPFDYISFFF | 68500 |
| DVPEEKKAESEKVDSDQEKAESEAKKIDETPAKETADKPEEKSEDKAEDKAAE | 26100 |
| MYCACGQDGKSPFVMRCVLCFGFVFLFLFLLFFSSLLISLLFIFSHCSMLLPI | 23000 |
| IVIPGGRPGSVGGGGWFGGSSVFLEGLEGLEDGVMFGNAWEFDLLDLEWLFPF | 121000 |
| AEEREAKKRAREEEEEEEAERAERAERAARLRRERAEEARRQAEQKHAEEARQ | 12100 |
| MIPSSAPLNFFLPFPFQFWFFFDFFFLTVEQPFFLCVVFFLLAFYVMLLYFFI | 17900 |
| FLVRLFVLPVTLCMLYRCSVSLDLSRLNGSARNEWFNYWNKALLLGMTLFSMR | 62500 |
| MSLKEDDFGKDNSRNIESYTGRIFDVYIQKDSYSQSALDDMFPEAVVSTAACV | 32700 |
| QRTNEDLDVDYVPYDHMGISFWDHLDPSRIAVPSHHNIFRIVVWLFFLVVYSQ | 53700 |
| MIISAVYITYFFSLSYLFFPLYLFIVYPFFSFLFNLLAKDTFIVDTYIIVFFA | 50600 |
| IKIIQLLGTRYLYFMIKELRGALLRGYQMHVLGYTVHAILASIDLNPACLKAC | 77200 |
| VCGAHCGYILGHINIFQPINWVLVQSSKVFPIDYVLFLLLVLFFFSASVVGLA | 21400 |
| MITYILRLGFDYLPPLALWIAIVLVHYTYVCCFLVVACENTCRWHMVQFNLRH | 73300 |
| ALVRCCLSKVVYVALEFISICTMPESAKGVINLIDNLSPYARKDLVHLRGWVC | 51800 |
| IKFGVPVALIVIIAAVVGGVLGSRASKNSSASSSAAGDSSSPSGEAAASGAAV | 48300 |
| IQNEDKFAESKNLSLDEFLKIFNGIYYERLRYDFNVVVIILLLTLFNHCKDFY | 52700 |
| RPPPPSAAAEPAADAPATEEAKPGHEKKEKTEKKPKEKAKKAEKKEEVCAAAT | < 6570 |
| SKADTEDGEEAVDDTATEEKPEAKAEEVTEETTTEKEAEAAAESAAAEKLRRD | 25700 |
| SICCALQDWYDYFSTLSYQDTLKSNIWYSLAETEYYWLHLLLFLPHLKRYLTR | 47600 |
| WLHKLPRATWAYPLYGIYYLLTNPALLSPLLSRIIPLLILSIFVLTFTFTFLY | 43800 |
| TEVHVARERIMSYALNLFQLAAGPSEYLANLQTGYHYVACLQWLLRFKIFALV | 57300 |
| GHKGRHLAEAAGLALGAKKLMKHRSHSRPGRSPSPEGHHRARHLAEAGIAAAG | 43900 |
| YHFALSYKRWINRVIIMIWCKLWWLRWCAFMQLFFRRNLRYNFWWRWIRVAGV | 56700 |
| LYECLKYMLFTFAGSTHTNYMAYLLETIINLELESSPGLKEALLLCLLINLTG | 48700 |
| GRPAKSQAEEPVEAAPEPKKRDRQANVAPEPVIEEAPVVKKGRGRPKKDAVTV | 29600 |

| Sequence | transcriptional activation domain activity |
| --- | --- |
| MRDIIGISIFLFFSLFLFYLSFCFCMRNVNLSFSLFILTLIDCLTDLLIMVPI | 60300 |
| IAMQPGEHQYDFEAHDFGLDLSDDLITQLEAGIGEYAWGSMPMDGNFWDQLYW | 127000 |
| MPILMQFCFIMALNGICNSMHLYAAYNLRTHVLARVFWSILWLLLRSLCSAGW | 70700 |
| PFVVTLLNLWKIWSLKLLKEKARLVVDGGAFVMGCVDETVTLRGHDDHKWTKD | 56800 |
| GKADKKETANGKSTDSKTAGGNANSTARKRKTSNASVQDQKAAKATTTAASRK | 27600 |
| MPLLPRWRGKACKVVILAQFDHRYYIHGTLKRLTDVVAWLKAWWICVFWLGSR | 61300 |
| GGKKGGRTKGATARDKSPEGRTDRPASKGKSLKTGGEDGKGKKSGERAGKLAH | 60400 |
| EPIQNEIAKLFHSGGDSVVDILFSQTSATEFVTVGGTGNVYHWDMEYSFSRND | 67800 |
| KAAVPKTKAAPKAKAVKAPKEKKAAAPKAKAAAKPKAAPKAKKAAAPKAAPAV | 29000 |
| SIPPPPPPPAPPGPSRGGPPPPPPPPPPGGRGGAPPPPPPPPGGRAPPAPPAP | 22100 |
| VYCELVSFLVLSSKKSDTKLLIQLERVARYISQLLFVESDAITMTSGISVLRP | 37500 |
| MYHAKFLYLLLGFLVYFLSSQTSINVYYISLNPFLFLAHPTILLIPLFPFRYT | 39700 |
| LNPDYIVGLSSLILVMCYIYKACYVSLLLSMHPLILLCMLCSSFTFIAIIVMI | 47700 |
| CCIRNSLFQEDSKCIKQQPDLLSEQTAPFPILEDQCPALNLDRSNNDLLLQNN | 35300 |
| LVVCCLASQVFIDSILLLPVKIVPPFYRLLSGVVNLVICRLTLFFLGFWWIPV | 59500 |
| YKVPTASLKDGCLCVNVASEKNFEKDVREKASIYLPSVGKVTILMLLRNLLRL | 55000 |
| AEEPAPEAPAPEEPAVEEAVPAEEAAPEAPAPVEEATPEKPVAAEEAAPEAPA | 32600 |
| LYVSLHAVVGNVAEFYFVRYGLALVCALCQTIMFQVTSVTLNGRIGLFFLIAT | 45400 |
| IGENDTVDGKRFCTFYPQYREGRVRVNLGVTRLSFRAFYICPLAFTIARYLLN | 67400 |
| YLSFLGIGVTFYTFLLLFFFLEDLEDFLVFFEGVLMIFLKLFIVFWTSLLVFL | 62000 |
| LWNSYLQSMDDTTGKNSGNYQQVDNDDNMSLLNLPILEETVSSGQDDKVEPDE | 54600 |
| AGRGGERRRRGLRRGRGRGAGAAARGRDGVRDDGERVAARVRVRVCARVCVCV | 42600 |
| VFLGMLFWHCRNYLTSYHYLFSTLAIWVLSYIMRLFYLNWSNPWRMSWLIGDE | 58300 |
| AVRLLSTKKISMSQANIGQTYFAHYCLSLLRLARYALSTMIKMFGPVYGWWLF | 64300 |
| RAKNRAKEEESAAQQKQAQHQQHQQHQQHRQGEEAGSAGRAEAAAAAAAAGAD | 26200 |
| RDAEKGKEKRRSRSKNRDEKMEHAEEATGGEPSREHKADSGKKSRRSSIKKSS | 29500 |
| HCIEAGIKLVSQFIDMYKEFSPGGKLCQVCWMLTNFSMNDFLLGVMVLCLVIH | 56200 |

Source: the supplement of paper PMC12636428
